The target of the assay is SARS-CoV-2 spike protein (wild type) (SARS-CoV-2, ancestral (wild type, …, UniProt P0DTC2)). Put plainly: lateral flow strip assay.

Data on one molecule can be found in PMC8796303 (ACS Central Science, 2021).

B1: REGN10933 (receptor binding domain binding antibody) (antibody, V domains shown)
VH: QVQLVESGGGLVKPGGSLRLSCAASGFTFSDYYMSWIRQAPGKGLEWVSYITYSGSTIYYADSVKGRFTISRDNAKSSLYLQMNSLRAEDTAVYYCARDRGTTMVPFDYWGQGTLVTVSS
VL: DIQMTQSPSSLSASVGDRVTITCQASQDITNYLNWYQQKPGKAPKLLIYAASNLETGVPSRFSGSGSGTDFTFTISGLQPEDIATYYCQQYDNLPLTFGGGTKVEIK
As for B1, the binding result was “binds”.
